Consider 31 molecules from publication PMC6555819, “Comprehensive study of nuclear receptor DNA binding provides a revised framework for understanding receptor specificity”.

To fix the notation:
B1: NRC3_wobSeed51_DR2_G25T_o1 (dsDNA)
DNA 1: GCCCTCGGAGGACAGAAGGTCAGATCTGTCCGCTTTGCGATTGACAGCGTAGAATGAAGG
DNA 2: CCTTCATTCTACGCTGTCAATCGCAAAGCGGACAGATCTGACCTTCTGTCCTCCGAGGGC
B2: NRC3_wobSeed111_DR4_G25T_o1 (dsDNA)
DNA 1: GCCGAACTAGGTCAGAACAGGACATTGAAGGATGATGCGATTGACAGCGTAGAATGAAGG
DNA 2: CCTTCATTCTACGCTGTCAATCGCATCATCCTTCAATGTCCTGTTCTGACCTAGTTCGGC
B3: NRC3_wobSeed111_DR4_G27T_o1 (dsDNA)
DNA 1: GCCGAACTAGGTCAGAACAGGACAGTTAAGGATGATGCGATTGACAGCGTAGAATGAAGG
DNA 2: CCTTCATTCTACGCTGTCAATCGCATCATCCTTAACTGTCCTGTTCTGACCTAGTTCGGC
B4: NRC3_wobSeed111_DR4_G21T_o1 (dsDNA)
DNA 1: GCCGAACTAGGTCAGAACAGTACAGTGAAGGATGATGCGATTGACAGCGTAGAATGAAGG
DNA 2: CCTTCATTCTACGCTGTCAATCGCATCATCCTTCACTGTACTGTTCTGACCTAGTTCGGC
B5: NRC3_wobSeed10_DR0_A7G_o1 (dsDNA)
DNA 1: GCATCGGAAGGTCGAGGTGAGTATAGAGAAAGGGAAGCGATTGACAGCGTAGAATGAAGG
DNA 2: CCTTCATTCTACGCTGTCAATCGCTTCCCTTTCTCTATACTCACCTCGACCTTCCGATGC
B6: NRC3_wobSeed98_DR4_C13A_o1 (dsDNA)
DNA 1: GCACTAGTTGGTAAGCTGAGGTCACACACAATTCGGGCGATTGACAGCGTAGAATGAAGG
DNA 2: CCTTCATTCTACGCTGTCAATCGCCCGAATTGTGTGTGACCTCAGCTTACCAACTAGTGC
B7: NRC3_wobSeed98_DR4_G11C_o1 (dsDNA)
DNA 1: GCACTAGTTGCTCAGCTGAGGTCACACACAATTCGGGCGATTGACAGCGTAGAATGAAGG
DNA 2: CCTTCATTCTACGCTGTCAATCGCCCGAATTGTGTGTGACCTCAGCTGAGCAACTAGTGC
B8: NRC3_wobSeed75_DR3_C6A_o1 (dsDNA)
DNA 1: GCTCTAGGAGGACACGAAGGTCAGAGCTTTCCAGAGGCGATTGACAGCGTAGAATGAAGG
DNA 2: CCTTCATTCTACGCTGTCAATCGCCTCTGGAAAGCTCTGACCTTCGTGTCCTCCTAGAGC
B9: NRC3_wobSeed106_DR4_G25C_o1 (dsDNA)
DNA 1: GCCTCGAAAGGTCGGTTGAGGTGACTATACGGATAAGCGATTGACAGCGTAGAATGAAGG
DNA 2: CCTTCATTCTACGCTGTCAATCGCTTATCCGTATAGTCACCTCAACCGACCTTTCGAGGC
B10: NRC3_wobSeed65_DR2_A5T_o1 (dsDNA)
DNA 1: GCATTTGTAGGTTATCGGGTCATTCAGTTTGCGCATGCGATTGACAGCGTAGAATGAAGG
DNA 2: CCTTCATTCTACGCTGTCAATCGCATGCGCAAACTGAATGACCCGATAACCTACAAATGC
B11: NRC3_wobSeed89_DR3_T13A_o1 (dsDNA)
DNA 1: GCCTATGTAGGTAAAGGGGGTCATTCAGTTTGAAAGGCGATTGACAGCGTAGAATGAAGG
DNA 2: CCTTCATTCTACGCTGTCAATCGCCTTTCAAACTGAATGACCCCCTTTACCTACATAGGC
B12: NRC3_wobSeed9_DR0_T22C_o1 (dsDNA)
DNA 1: GCATCTCTAGGTAAAGTTCAGCGAAAGATCGATAGAGCGATTGACAGCGTAGAATGAAGG
DNA 2: CCTTCATTCTACGCTGTCAATCGCTCTATCGATCTTTCGCTGAACTTTACCTAGAGATGC
B13: NRC3_wobSeed86_DR3_T17A_o1 (dsDNA)
DNA 1: GCGCTGCTAGGTCAGGATGGTCAGCTAACGGGTACGGCGATTGACAGCGTAGAATGAAGG
DNA 2: CCTTCATTCTACGCTGTCAATCGCCGTACCCGTTAGCTGACCATCCTGACCTAGCAGCGC
B14: NRC3_wobSeed86_DR3_A23G_o1 (dsDNA)
DNA 1: GCGCTGCTAGGTCAGGTTGGTCGGCTAACGGGTACGGCGATTGACAGCGTAGAATGAAGG
DNA 2: CCTTCATTCTACGCTGTCAATCGCCGTACCCGTTAGCCGACCAACCTGACCTAGCAGCGC
B15: NRC3_wobSeed86_DR3_G24A_o1 (dsDNA)
DNA 1: GCGCTGCTAGGTCAGGTTGGTCAACTAACGGGTACGGCGATTGACAGCGTAGAATGAAGG
DNA 2: CCTTCATTCTACGCTGTCAATCGCCGTACCCGTTAGTTGACCAACCTGACCTAGCAGCGC
B16: NRC3_wobSeed86_DR3_A23T_o1 (dsDNA)
DNA 1: GCGCTGCTAGGTCAGGTTGGTCTGCTAACGGGTACGGCGATTGACAGCGTAGAATGAAGG
DNA 2: CCTTCATTCTACGCTGTCAATCGCCGTACCCGTTAGCAGACCAACCTGACCTAGCAGCGC
B17: NRC3_wobSeed112_DR4_A27C_o1 (dsDNA)
DNA 1: GCTAGCCTAGGTCAGATCGGGCCAGTCTACGCTATAGCGATTGACAGCGTAGAATGAAGG
DNA 2: CCTTCATTCTACGCTGTCAATCGCTATAGCGTAGACTGGCCCGATCTGACCTAGGCTAGC
B18: NRC3_wobSeed112_DR4_C23G_o1 (dsDNA)
DNA 1: GCTAGCCTAGGTCAGATCGGGCGAGTATACGCTATAGCGATTGACAGCGTAGAATGAAGG
DNA 2: CCTTCATTCTACGCTGTCAATCGCTATAGCGTATACTCGCCCGATCTGACCTAGGCTAGC
B19: NRC3_wobSeed4_DR0_A24C_o1 (dsDNA)
DNA 1: GCCCTACTGGGCCAAGGTCATTGCTCAGTCAAAGCAGCGATTGACAGCGTAGAATGAAGG
DNA 2: CCTTCATTCTACGCTGTCAATCGCTGCTTTGACTGAGCAATGACCTTGGCCCAGTAGGGC
B20: NRC3_wobSeed4_DR0_C13G_o1 (dsDNA)
DNA 1: GCCCTACTGGGCGAAGGTCATTGATCAGTCAAAGCAGCGATTGACAGCGTAGAATGAAGG
DNA 2: CCTTCATTCTACGCTGTCAATCGCTGCTTTGACTGATCAATGACCTTCGCCCAGTAGGGC
B21: NRC3_wobSeed69_DR2_A7C_o1 (dsDNA)
DNA 1: GCAGTCCAAGTTCACTAGGTAACGTAAGATTCAGCTGCGATTGACAGCGTAGAATGAAGG
DNA 2: CCTTCATTCTACGCTGTCAATCGCAGCTGAATCTTACGTTACCTAGTGAACTTGGACTGC
B22: NRC3_wobSeed69_DR2_A8T_o1 (dsDNA)
DNA 1: GCAGTCATAGTTCACTAGGTAACGTAAGATTCAGCTGCGATTGACAGCGTAGAATGAAGG
DNA 2: CCTTCATTCTACGCTGTCAATCGCAGCTGAATCTTACGTTACCTAGTGAACTATGACTGC
B23: NRC3_wobSeed46_DR1_A5T_o1 (dsDNA)
DNA 1: GCTTTCCAAGGTGAAAGGTCGTTGATGCACGCCTTGGCGATTGACAGCGTAGAATGAAGG
DNA 2: CCTTCATTCTACGCTGTCAATCGCCAAGGCGTGCATCAACGACCTTTCACCTTGGAAAGC
B24: NRC3_wobSeed46_DR1_T26A_o1 (dsDNA)
DNA 1: GCTTACCAAGGTGAAAGGTCGTTGAAGCACGCCTTGGCGATTGACAGCGTAGAATGAAGG
DNA 2: CCTTCATTCTACGCTGTCAATCGCCAAGGCGTGCTTCAACGACCTTTCACCTTGGTAAGC
B25: NRC3_wobSeed46_DR1_C7G_o1 (dsDNA)
DNA 1: GCTTACGAAGGTGAAAGGTCGTTGATGCACGCCTTGGCGATTGACAGCGTAGAATGAAGG
DNA 2: CCTTCATTCTACGCTGTCAATCGCCAAGGCGTGCATCAACGACCTTTCACCTTCGTAAGC
B26: NRC3_wobSeed46_DR1_T26G_o1 (dsDNA)
DNA 1: GCTTACCAAGGTGAAAGGTCGTTGAGGCACGCCTTGGCGATTGACAGCGTAGAATGAAGG
DNA 2: CCTTCATTCTACGCTGTCAATCGCCAAGGCGTGCCTCAACGACCTTTCACCTTGGTAAGC
B27: NRC3_wobSeed72_DR2_G5A_o1 (dsDNA)
DNA 1: GCTCAAGTAGGTTACGGGGGCATTCAGGGATGAAGAGCGATTGACAGCGTAGAATGAAGG
DNA 2: CCTTCATTCTACGCTGTCAATCGCTCTTCATCCCTGAATGCCCCCGTAACCTACTTGAGC
B28: NRC3_wobSeed124_DR5_T5G_o1 (dsDNA)
DNA 1: GCCCGACTGGGCCATTCAGAGGTCATTGATCATATGGCGATTGACAGCGTAGAATGAAGG
DNA 2: CCTTCATTCTACGCTGTCAATCGCCATATGATCAATGACCTCTGAATGGCCCAGTCGGGC
B29: NRC3_wobSeed90_DR3_A8C_o1 (dsDNA)
DNA 1: GCCATACCGGGTCAGCTAGGCCAGAGTAGGGACGGCGCGATTGACAGCGTAGAATGAAGG
DNA 2: CCTTCATTCTACGCTGTCAATCGCGCCGTCCCTACTCTGGCCTAGCTGACCCGGTATGGC
B30: NRC3_wobSeed5_DR0_G9C_o1 (dsDNA)
DNA 1: GCCCTTACCGGTCAAGGTTATAGCACGGGTGGTACGGCGATTGACAGCGTAGAATGAAGG
DNA 2: CCTTCATTCTACGCTGTCAATCGCCGTACCACCCGTGCTATAACCTTGACCGGTAAGGGC
B31: NRC3_wobSeed41_DR1_G11C_o1 (dsDNA)
DNA 1: GCATATGTAGCTTAAGGGTCATTCAGGTTGGTTCGCGCGATTGACAGCGTAGAATGAAGG
DNA 2: CCTTCATTCTACGCTGTCAATCGCGCGAACCAACCTGAATGACCCTTAAGCTACATATGC

RARb:RXRa, sequence (P10826 whole entry, chain 1 of 2): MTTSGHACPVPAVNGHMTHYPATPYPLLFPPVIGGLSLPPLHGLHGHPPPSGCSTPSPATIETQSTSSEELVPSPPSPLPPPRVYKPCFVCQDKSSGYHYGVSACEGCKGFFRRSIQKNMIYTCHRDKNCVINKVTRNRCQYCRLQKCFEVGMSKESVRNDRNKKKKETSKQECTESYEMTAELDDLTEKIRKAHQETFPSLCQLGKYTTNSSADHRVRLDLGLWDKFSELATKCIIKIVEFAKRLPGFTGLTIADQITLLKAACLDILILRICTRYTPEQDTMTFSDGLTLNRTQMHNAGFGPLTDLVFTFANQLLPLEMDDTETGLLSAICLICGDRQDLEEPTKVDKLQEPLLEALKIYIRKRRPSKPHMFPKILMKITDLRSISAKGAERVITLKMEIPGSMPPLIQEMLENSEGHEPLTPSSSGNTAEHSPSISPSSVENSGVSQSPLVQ
RARb:RXRa, sequence (P19793 whole entry, chain 2 of 2): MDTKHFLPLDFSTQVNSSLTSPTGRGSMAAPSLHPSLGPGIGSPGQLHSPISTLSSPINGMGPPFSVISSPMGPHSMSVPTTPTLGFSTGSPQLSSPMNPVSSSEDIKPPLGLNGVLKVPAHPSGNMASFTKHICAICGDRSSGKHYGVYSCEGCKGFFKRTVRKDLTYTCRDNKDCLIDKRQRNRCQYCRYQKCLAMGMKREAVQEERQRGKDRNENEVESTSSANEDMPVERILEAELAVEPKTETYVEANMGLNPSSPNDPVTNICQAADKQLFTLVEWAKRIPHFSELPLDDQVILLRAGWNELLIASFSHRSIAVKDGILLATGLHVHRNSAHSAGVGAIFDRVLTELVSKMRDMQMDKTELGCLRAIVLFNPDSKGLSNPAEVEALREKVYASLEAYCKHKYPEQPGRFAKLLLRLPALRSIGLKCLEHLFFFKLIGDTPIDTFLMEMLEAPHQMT

In the data set the target is RARb:RXRa (Homo sapiens, UniProt P10826;P19793 full;full). Put plainly: no ligand; PBM; 270 nM : 90 nM RXRa; PBS pH 7.4, 2% milk, 0.02% Triton X-100, 1 mM DTT, BSA, 0.4 mg/ml salmon testes DNA. The conditions noted are these: tags: His kept;His cleaved; copies: 1;1; label: surface-attached array probe. The procedure, abridged:
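Antibodies against each partner of ligand-free nuclear receptor dimers (one per run) detected binding on custom Agilent 4×180K protein-binding microarrays after 1 h incubation. The double-stranded probes had 34-nt variable regions carrying direct-repeat seeds, single-nucleotide variants, half-site ablations and random human genomic background sequences. Binding z-scores, from regression-normalized fluorescence, use the random background probes as reference.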
As for B1, the binding signal was 3.07 PBM z-score against 500 random probes.

Take B2: the binding signal was 3.08 PBM z-score against 500 random probes.

As for B3, the binding signal is 3.03 PBM z-score against 500 random probes.

Take B4: the binding signal is 3.01 PBM z-score against 500 random probes.

In the case of B5, the binding signal is 3 PBM z-score against 500 random probes.

In the case of B6, the binding signal is 3.06 PBM z-score against 500 random probes.

With B7, the binding signal was 3.01 PBM z-score against 500 random probes.

For the molecule B8, the binding signal was 3.07 PBM z-score against 500 random probes.

As to B9, the binding signal is 3.02 PBM z-score against 500 random probes.

B10: the binding signal is 3 PBM z-score against 500 random probes.

Consider B11, for which the binding signal is 3.02 PBM z-score against 500 random probes.

For B12, the binding signal was 3.07 PBM z-score against 500 random probes.

Regarding B13, the binding signal is 3.06 PBM z-score against 500 random probes.

For B14, the binding signal was 3.01 PBM z-score against 500 random probes.

Consider B15, for which the binding signal is 3.06 PBM z-score against 500 random probes.

For B16, the binding signal is 3.05 PBM z-score against 500 random probes.

As for B17, the binding signal was 3.08 PBM z-score against 500 random probes.

Turning to B18, the binding signal was 3.08 PBM z-score against 500 random probes.

As for B19, the binding signal is 3.07 PBM z-score against 500 random probes.

Consider B20, for which the binding signal was 3.03 PBM z-score against 500 random probes.

For the molecule B21, the binding signal was 3.03 PBM z-score against 500 random probes.

With B22, the binding signal is 3.02 PBM z-score against 500 random probes.

Turning to B23, the binding signal is 3.06 PBM z-score against 500 random probes.

For the molecule B24, the binding signal was 3.02 PBM z-score against 500 random probes.

On to B25, for which the binding signal was 3.05 PBM z-score against 500 random probes.

B26: the binding signal is 3.01 PBM z-score against 500 random probes.

Take B27: the binding signal is 3.05 PBM z-score against 500 random probes.

Turning to B28, the binding signal is 3.03 PBM z-score against 500 random probes.

Take B29: the binding signal was 3.04 PBM z-score against 500 random probes.

For B30, the binding signal was 3.08 PBM z-score against 500 random probes.

For B31, the binding signal was 3.04 PBM z-score against 500 random probes.
